{
  "source": "patent US20240309105A1",
  "about": "(Boehringer Ingelheim, published 2024)",
  "molecules": {"B1": {"name": "2H11 (antibody, V domains shown)", "VH": "EVQLQQSGAELVRPGASVKLSCTASGFNIKDYYVHWVKQRPEKGLEWIGRIDPEDGDSKYAPKFQGKATMTADTSSNTAYLHLSSLTSEDTAVYYCTTSYYVGTYGYWGQGTTLTVSS", "VL": "QIVLTQSPAIMSASPGEKVTITCSASSSVSYMLWFQQKPGTSPKLWIYSTSNLASGVPARFGGSGSGTSYSLTISRMEAEDAATYYCQQRTFYPYTFGGGTKLEIK", "notes": "Mouse monoclonal antibody; also called murine anti-CD40 mAb 2H11"}, "B2": {"name": "Antibody A (antibody, human IgG1, kappa, L234A L235A, V domains shown)", "VH": "EVQLVESGGGLVKPGGSLRLSCAASGFTFSDYGMHWVRQAPGKGLEWVAYISSGNRIIYYADTVKGRFTISRDNAKNSLYLQMNSLRAEDTALYYCARQDGYRYAMDYWAQGTLVTVSS", "VL": "DIVMTQSPDSLAVSLGERATMSCKSSQSLLNSGNQKNYLTWHQQKPGQPPKLLIYWTSTRESGVPDRFSGSGSGTDFTLTISSLQAEDVAVYYCQNDYTYPLTFGGGTKVEIKR", "notes": "also called humanized 20E2"}, "B3": {"name": "Antibody B (antibody, human IgG1, kappa, L234A L235A, V domains shown)", "VH": "EVQLVESGGGLVKPGGSLRLSCAASGFTFSDYGMHWVRQAPGKGLEWVAYISSGNRIIYYADTVKGRFTISRDNAKNSLYLQMNSLRAEDTAVYYCARQDGYRYAMDYWGQGTLVTVSS", "VL": "DIVMTQSPDSLAVSLGEKVTINCKSSQSLLNSGNQKNYLTWHQQKPGQPPKLLIYWTSTRESGVPDRFSGSGSGTDFTLTISSLQAEDVAVYYCQNDYTYPLTFGGGTKVEIKR", "notes": "also called humanized 20E2"}, "B4": {"name": "Antibody C (antibody, human IgG1, kappa, L234A L235A, V domains shown)", "VH": "QVQLVQSGAEVKKPGASVKVSCTASGFNIKDYYVHWVKQAPGQGLEWMGRIDPEDGDSKYAPKFQGKATMTADTSTSTVYMELSSLRSEDTAVYYCTTSYYVGTYGYWGQGTLVTVSS", "VL": "DIQMTQSPSSLSASVGDRVTITCSASSSVSYMLWFQQKPGKAPKLLIYSTSNLASGVPSRFSGSGSGTDFTLTISSLQPEDFATYYCQQRTFYPYTFGGGTKVEIKR", "notes": "also called humanized 2H11"}, "B5": {"name": "4D11 (Kirin/Astellas) anti-CD40 antibody (antibody, V domains shown)", "VH": "QLQLQESGPGLLKPSETLSLTCTVSGGSISSPGYYGGWIRQPPGKGLEWIGSIYKSGSTYHNPSLKSRVTISVDTSKNQFSLKLSSVTAADTAVYYCTRPVVRYFGWFDPWGQGTLVTVSS", "VL": "AIQLTQSPSSLSASVGDRVTITCRASQGISSALAWYQQKPGKAPKLLIYDASNLESGVPSRFSGSGSGTDFTLTISSLQPEDFATYYCQQFNSYPTFGQGTKVEIK"}},
  "key": {"human CD40 on cells [1]": {"target": "T1, human CD40 on cells (human, UniProt P25942 21-277)", "T1 sequence (P25942 21-277)": "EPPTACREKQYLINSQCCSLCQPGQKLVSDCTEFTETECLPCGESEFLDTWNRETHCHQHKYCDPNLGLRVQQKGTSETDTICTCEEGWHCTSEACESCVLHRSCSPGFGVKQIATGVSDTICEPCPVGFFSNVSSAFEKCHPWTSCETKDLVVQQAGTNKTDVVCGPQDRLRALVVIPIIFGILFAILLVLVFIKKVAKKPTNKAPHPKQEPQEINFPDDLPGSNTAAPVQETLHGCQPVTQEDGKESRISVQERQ", "assay": "FACS on B cells in whole blood of healthy subjects; 180 mg SC dose group, Day 64"}, "human CD40 on cells [2]": {"target": "T1, human CD40 on cells", "assay": "FACS on B cells in whole blood of healthy subjects, free CD40 detected with excess FITC-labeled antibody; 72 hours after a single 120-240 mg SC dose"}, "human CD40 on cells [3]": {"target": "T1, human CD40 on cells", "assay": "FACS on B cells in whole blood of healthy subjects, free CD40 detected with excess FITC-labeled antibody; 72 hours after a single 80 mg SC dose"}, "human CD40 on cells [4]": {"target": "T1, human CD40 on cells", "assay": "cell-based or functional assay"}, "human CD40 on cells [5]": {"target": "T1, human CD40 on cells", "assay": "FACS on B cells in whole blood of healthy subjects; 240 mg SC dose group, Day 78"}, "human CD40 on cells [6]": {"target": "T1, human CD40 on cells", "assay": "binding to human B cells"}, "human CD40 on cells [7]": {"target": "T1, human CD40 on cells", "assay": "FACS on B cells in whole blood of healthy subjects; after the fourth once-weekly SC dose, all doses, until Day 39"}, "human CD40 on cells [8]": {"target": "T1, human CD40 on cells", "assay": "FITC-labeled antibody on Ramos cells"}, "[9]": {"target": "T2, cynomolgus monkey CD40 on cells (cynomolgus monkey, UniProt G7PG38 21-278)", "T2 construct": "whole, on cells; Cell surface CD40 on cynomolgus B cells and platelets; also called Cyno CD40; CD40 on cynomolgus monkey B cells and platelets", "assay": "ratio of binding EC50, human over cynomolgus; ratio > 1 means increased binding to Cyno compared to Human"}, "human CD40-Fc protein": {"target": "T3, human CD40-Fc protein (human, UniProt P25942 21-193)", "T3 construct": "also called recombinant CD40 protein; not shown: Fc part", "T3 sequence (P25942 21-193 limits assumed)": "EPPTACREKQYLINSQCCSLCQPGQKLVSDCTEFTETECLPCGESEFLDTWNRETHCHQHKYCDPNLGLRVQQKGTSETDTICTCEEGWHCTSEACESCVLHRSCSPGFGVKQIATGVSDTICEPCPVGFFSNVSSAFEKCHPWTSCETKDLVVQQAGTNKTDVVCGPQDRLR", "assay": "ForteBio Octet, human CD40-Fc, with and without human serum", "method": "Due to antibody and CD40-Fc bivalency avidity effects prevent Kds below 100 pM from being determined accurately. In addition, the binding to CD40-Fc was analyzed in the absence and presence of 50% human serum and no significant effect of serum on binding was observed (data not shown)"}, "human CD40 on cells [10]": {"target": "T1, human CD40 on cells", "assay": "cell-based or functional assay", "remark": "listed apart in the source"}, "human CD40 on cells [11]": {"target": "T1, human CD40 on cells", "assay": "cell binding, flow cytometry (cell line not given)", "method": "The specific binding of humanized antibodies to cellular CD40 was analyzed by flow cytometry using human CD40-transfected HEK293 cells. Concentration-dependent binding of Antibody A, Antibody B, and Antibody C was observed. […] No binding was detected on CD40 negative cells such as non-transfected HEK293 cells or the T cell line HSB-2 thus confirming selective binding to CD40 (data not shown)."}, "human CD40 on cells [12]": {"target": "T1, human CD40 on cells", "assay": "flow cytometry, human CD40-transfected HEK293 cells"}, "human CD40 on cells [13]": {"target": "T1, human CD40 on cells", "assay": "cell-based or functional assay", "remark": "listed apart in the source"}},
  "data": [
    {"molecule": "an antibody of the present invention (BI 655064)", "values": [
      {"measurement": "CD40 receptor occupancy (RO)", "setting": "human CD40 on cells [1]", "result": 79, "unit": "%"},
      {"measurement": "CD40 receptor occupancy (RO)", "setting": "human CD40 on cells [2]", "result": "94 to 95", "unit": "%"},
      {"measurement": "CD40 receptor occupancy (RO)", "setting": "human CD40 on cells [3]", "result": 89, "unit": "%"},
      {"measurement": "inhibition of CD54 upregulation after the fourth once-weekly SC dose, all doses, up to Day 39", "setting": "human CD40 on cells [4]", "result": "> 90", "unit": "%"},
      {"measurement": "inhibition of CD54 upregulation, 80 mg SC single dose, first post-dose measurement (72 hours)", "setting": "human CD40 on cells [4]", "result": 87, "unit": "%"},
      {"measurement": "inhibition of CD54 upregulation, 80 mg SC, Day 7 post dose", "setting": "human CD40 on cells [4]", "result": 95, "unit": "%"},
      {"measurement": "inhibition of CD54 upregulation, 180 mg group, Day 64", "setting": "human CD40 on cells [4]", "result": 89, "unit": "%"},
      {"measurement": "inhibition of CD54 upregulation, 240 mg group, Day 78", "setting": "human CD40 on cells [4]", "result": 51, "unit": "%"},
      {"measurement": "inhibition of CD54 upregulation, all other doses (120-240 mg SC), from 72 hours onwards", "setting": "human CD40 on cells [4]", "result": 95, "unit": "%"},
      {"measurement": "inhibition of CD54 upregulation, higher doses (120-240 mg SC), 72 hours after the first dose", "setting": "human CD40 on cells [4]", "result": "> 90", "unit": "%"},
      {"measurement": "CD40 receptor occupancy (RO)", "setting": "human CD40 on cells [5]", "result": 68, "unit": "%"},
      {"measurement": "EC90", "setting": "human CD40 on cells [6]", "result": 6.85, "unit": "nM"},
      {"measurement": "CD40 receptor occupancy (RO)", "setting": "human CD40 on cells [7]", "result": "> 90", "unit": "%"}
    ]},
    {"molecule": "B1", "values": [
      {"measurement": "binding result", "setting": "human CD40 on cells [8]", "result": "binds"}
    ]},
    {"molecule": "B2", "values": [
      {"measurement": "Species cross-react.: Hu/Cyno Binding (EC50 ratios)", "setting": "[9]", "result": 3, "unit": "ratio"},
      {"measurement": "Kd", "setting": "human CD40-Fc protein", "result": "< 0.1", "unit": "nM"},
      {"measurement": "B cell proliferation: Agonism (SI*)", "setting": "human CD40 on cells [10]", "result": "< 2 SI (Stimulation Index)"},
      {"measurement": "EC50", "setting": "human CD40 on cells [11]", "result": 1.2, "unit": "nM"}
    ]},
    {"molecule": "B3", "values": [
      {"measurement": "Species cross-react.: Hu/Cyno Binding (EC50 ratios)", "setting": "[9]", "result": 2, "unit": "ratio"},
      {"measurement": "Kd", "setting": "human CD40-Fc protein", "result": "< 0.1", "unit": "nM"},
      {"measurement": "B cell proliferation: Agonism (SI*)", "setting": "human CD40 on cells [10]", "result": "< 2 SI (Stimulation Index)"},
      {"measurement": "EC50", "setting": "human CD40 on cells [11]", "result": 1.5, "unit": "nM"}
    ]},
    {"molecule": "B4", "values": [
      {"measurement": "Species cross-react.: Hu/Cyno Binding (EC50 ratios)", "setting": "[9]", "result": 1, "unit": "ratio"},
      {"measurement": "Kd", "setting": "human CD40-Fc protein", "result": "< 0.1", "unit": "nM"},
      {"measurement": "B cell proliferation: Agonism (SI*)", "setting": "human CD40 on cells [10]", "result": "< 2 SI (Stimulation Index)"},
      {"measurement": "EC50", "setting": "human CD40 on cells [11]", "result": 1.7, "unit": "nM"}
    ]},
    {"molecule": "B5", "values": [
      {"measurement": "EC50", "setting": "human CD40 on cells [12]", "result": "~1", "unit": "nM"},
      {"measurement": "B cell proliferation assay, average IC50", "setting": "human CD40 on cells [13]", "result": "~0.02", "unit": "nM"},
      {"measurement": "Kd", "setting": "human CD40-Fc protein", "result": "< 0.1", "unit": "nM"},
      {"measurement": "B cell proliferation: Agonism (SI*)", "setting": "human CD40 on cells [10]", "result": "< 2 SI (Stimulation Index)"},
      {"measurement": "EC50", "setting": "human CD40 on cells [11]", "result": 0.9, "unit": "nM"}
    ]}
  ]
}
